According to publication PMC11784651 (mAbs, 2025):
Blank lines part the entries; values can stand above or below the binder they belong to.

Molecular target: human CD38 extracellular domain (hsCD38 ECD) used for crystallization (Homo sapiens, stabilised)
Assay: crystal structure

binding result: binds
B1: anti-CD38 B6-D9 Fab (Fab, V domains shown)
VH: QVQLVQSGAEVKKPGSSVKVSCKASGGFFSHYIINWVRQAPGQGLEWMGRVIPVIDDAYYAQKFQGRVTITADESTSTAYMELSSLRSEDTAVYYCARSRGYYGSFYFDIWGQGTLVTVSS
VL: not shown

binding result: binds
B2: anti-CD38 E2-RecA Fab (Fab, V domains shown)
VH: QVQLVQSGAEVKKPGSSVKVSCKASGLPDATYAIGWVRQAPGQGLEWMGRIIPRLDAEHYAQKFQGRVTITADESTSTAYMELSSLRSEDTAVYYCARGLGYYLYSSYYFDIWGQGTLVTVSS
VL: not shown
